Source: US20160208003A1 (AFFITECH RESEARCH, published 2016)

Assays:
[1] = biological target: T1, human CC chemokine receptor 4 (CCR4) (human, UniProt P51679 1-360); assay: competition flow cytometry on CCR4-transfected DT40 cells: unlabelled IgG against 7 nM biotinylated 9E IgG, streptavidin-RPE
T1 construct: whole, on cells; Always presented on cells; also called CD194; human CCR4
T1 sequence (looked up): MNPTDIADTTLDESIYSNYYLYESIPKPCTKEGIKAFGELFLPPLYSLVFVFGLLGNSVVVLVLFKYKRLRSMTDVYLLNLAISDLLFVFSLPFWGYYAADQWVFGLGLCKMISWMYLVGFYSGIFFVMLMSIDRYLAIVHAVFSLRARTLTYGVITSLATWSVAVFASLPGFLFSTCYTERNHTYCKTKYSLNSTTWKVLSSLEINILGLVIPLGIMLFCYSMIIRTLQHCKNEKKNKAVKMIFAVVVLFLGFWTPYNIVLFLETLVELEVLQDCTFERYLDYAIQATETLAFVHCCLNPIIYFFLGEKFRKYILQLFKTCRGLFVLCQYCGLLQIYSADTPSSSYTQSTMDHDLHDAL
Procedure: To analyze the epitope binding of anti-CCR4 antibodies 17G, 9E and KM3060var, competition experiments were performed using flow cytometry. The binding of biotinylated antibodies to CCR4 transfected DT40-cells was challenged in the presence of different concentrations of non-biotinylated anti-CCR4 antibodies. The CCR4⁺ DT40 cells were harvested from culture flasks, washed 2 times with PBS, re-suspended in PBS with 0.2% BSA and 0.09% NaN₃ and finally aliquoted 1×10⁵ cells per well into V-shaped 96-well plates (Greiner Bio-One, Frickenhausen, Germany). Cells were centrifuged at 400×g for 5 min and then incubated at 4° C. for 3-4 hours with fixed amounts of biotinylated IgG and different concentrations of non-biotinylated antibodies. After washing with PBS with 0.2% BSA and 0.09% NaN₃, the cells were stained with 2.5 μg/ml of Streptavidin—RPE (BD Pharmingen, San Diego, Calif., USA) for 30 minutes at 4° C. The stained cells were washed, re-suspended in 250 μl PBS with 0.2% BSA and 0.09% NaN₃ and transferred to a U-shaped 96-well plate (Corning, Schiphol-Rijk, The Netherlands) for acquisition on EasyCyte flow cytometer (Guava Technologies, Hayward, Calif., USA). The results shown in FIGS. 10 A, B and C illustrate that the 17G and 9E antibodies have epitopes that are identical or at least overlapping.

[2] = biological target: T1, human CC chemokine receptor 4 (CCR4); assay: flow cytometry, IgG titration on CCR4+ DT40 cells; one site-specific binding fit (Prism)
Procedure: The IgG forms of antibodies 17G, 9E and KM3060var using various CCR4⁺ cell types were used (see Example 2).
For the flow cytometry experiments, the cells were harvested from the culture flasks, washed 2 times with PBS, re-suspended in PBS with 0.2% BSA and 0.09% NaN₃ and finally aliquoted 1×10⁵ cells per well into V-shaped 96-well plates (Greiner Bio-One, Frickenhausen, Germany). Cells were centrifuged at 400×g for 5 min and then incubated at 4° C. for 45 min with different antibody dilutions.
After washing with PBS with 0.2% BSA and 0.09% NaN₃, the cells were stained with 10 μg/ml of RPE-conjugated goat anti-human IgG (AbDSerotec, Düsseldorf, Germany) for 30 minutes at 4° C. The stained cells were washed, re-suspended in 200 μl PBS with 0.2% BSA and 0.09% NaN₃ and transferred to a U-shaped 96-well plate (Corning, Schiphol-Rijk, The Netherlands) for acquisition on EasyCyte flow cytometer (Guava Technologies, Hayward, Calif., USA).

B1: 9E IgG (full length human IgG1, lambda) (antibody, V domains shown)
VH: QVQLVQSGAEVKKPGSSVKVSCKASGGTFSNYAISWVRQAPGQGLEWMGGIIPIFGTANYAQKFQGRVTITADESTSTAYMELSSLRSEDTAVYYCARRGGSYFDYWGQGTLVTVSS
VL: SYVLTQPPSASGTPGQSVTISCSGSTSNIGSHYVFWYQQLPGTAPRLLIYRNHQRPSGVPDRLSGSKSGTSASLAISGLRSEDEADYYCAVWDDTLSGWVFGGGTKLTVLG
notes: also called IgG 9E; IgG1 9E
IC50 (read off the curve) [1]: ~3 nM
Kd [2]: 0.72 nM
